According to patent US20230340128A1 (Xencor, published 2023):
Changes are numbered by the printed parent chain.

Tests used:
[1] = target: T1, human mesothelin (MSLN) (human, UniProt Q13421 296-580, limits assumed); assay: BLI (Octet), bsAb in 1+1 Fab-scFv-Fc format
T1 construct: Antigen of the Octet KD values

[2] = target: T2, MSLN on OVCAR8 cells (~90K MSLN antigens/cell) (UniProt Q13421 296-598); assay: binding to OVCAR8 cells, MFI APC against mAb concentration
[3] = target: T1, human mesothelin (MSLN); assay: BLI (Octet), multiple concentrations, bsAb in 1+1 Fab-scFv-Fc format; lower table, column 'human MSLN (M)'
[4] = target: T2, MSLN on OVCAR8 cells (~90K MSLN …); assay: binding to OVCAR8 cells, MFI APC against mAb concentration; remark: listed apart in the source
[5] = target: T1, human mesothelin (MSLN); assay: KD quoted in the FIG. 25 legend; Octet (BLI) per FIGS. 20-21
[6] = target: T2, MSLN on OVCAR8 cells (~90K MSLN …); assay: binding to OVCAR8 cells, MFI APC against mAb concentration; remark: listed apart in the source
[7] = target: T3, MSLN on OVCAR8 cells (~90K MSLN antigens/cell) (UniProt Q13421 296-598); assay: flow cytometry on OVCAR8 cells, 1 h at 4 C, anti-human-Fc A647 secondary
T3 construct: whole, on cells; Endogenous expression on a cancer cell line
Method: (§1) In this experiment, 50,000 OVCAR8 cells (˜90K MSLN antigens/cell) were seeded per well in a plate. Anti-human-Fc secondary (A647) was added for 30 min at 4° C., and binding was assessed via FACs. FIG. 39C depicts that the CD28×MSLN bsAbs in neither 1+1-Fab-scFv format nor the 2+1 mAb-scFv format antibodies show any significant off target binding. In this experiment, 50,000 SKOV3 cells (˜9K MSLN antigens/cell) were seeded per well in a plate. Anti-human-Fc secondary (A647) was added for 30 min at 4° C., and binding was assessed via FACs.
(§2) In order to assess the binding of MSLN×CD28 bsAbs in different formats, an experiment was conducted in which 50,000 OVCAR8 cells (˜90K MSLN antigens/cell) were seeded per well in a plate. Anti-human-Fc secondary (A647) was added for 30 min at 4° C., and binding was assessed via FACs.

[8] = target: T3, MSLN on OVCAR8 cells (~90K MSLN …); assay: as above; remark: listed apart in the source
Method: as §1, §2

[9] = target: T4, human CD28 (human, UniProt P10747 19-152, limits assumed); assay: label in the legend box: nominal affinity of the CD28 binding domain (paragraph 422 calls such label values KD); method not stated on the sheet
T4 construct: also called Cluster of Differentiation 28; Tp44

[10] = target: T1, human mesothelin (MSLN); assay: label in the legend box: nominal affinity of the MSLN binding domain (paragraph 422 calls such label values KD); method not stated on the sheet

B1: XENP32561 (bispecific antibody)
chain 1: QVQLVQSGAEVKKPGASVKVSCKASGYTFTSYWMHWVRQAPGQGLEWMGMIHPNSDNTIYYEKFQGRVTMTVDKSISTAYMELSRLRSDDTAVYYCAIIITPVVPKFDYWGQGTLVTVSSASTKGPSVFPLAPSSKSTSGGTAALGCLVKDYFPEPVTVSWNSGALTSGVHTFPAVLQSSGLYSLSSVVTVPSSSLGTQTYICNVNHKPSDTKVDKKVEPKSCDKTHTCPPCPAPPVAGPSVFLFPPKPKDTLMISRTPEVTCVVVDVKHEDPEVKFNWYVDGVEVHNAKTKPREEEYNSTYRVVSVLTVLHQDWLNGKEYKCKVSNKALPAPIEKTISKAKGQPREPQVYTLPPSREEMTKNQVSLTCDVSGFYPSDIAVEWESDGQPENNYKTTPPVLDSDGSFFLYSKLTVDKSRWEQGDVFSCSVMHEALHNHYTQKSLSLSPGK
chain 2: not shown
chain 3: DIVMTQSPDSLAVSLGERATINCKASHSVGTSVAWYQQKPGQSPKLLIYWASTRHTGVPDRFTGSGSGTDFTLTISSLQAEDVAVYFCQQYSSYPLTFGAGTKLEIKRTVAAPSVFIFPPSDEQLKSGTASVVCLLNNFYPREAKVQWKVDNALQSGNSQESVTEQDSKDSTYSLSSTLTLSKADYEKHKVYACEVTHQGLSSPVTKSFNRGEC
Question: Which results are given for B1?
Answer: Kd [1]: 0.355 nM; Response [1]: 1.08; koff [1]: 0.000215 s⁻¹; kon [1]: 606000 M⁻¹ s⁻¹; EC50 (read off the curve) [2]: ~0.2 µg/mL; Kd [3]: 0.45 nM

B2: XENP32562 (bispecific antibody)
chain 1: B1 chain 1
chain 2: not shown
chain 3: B1 chain 3 with S28D, G30L
Question: With B2 as the binder, how does the Kd [1] read?
Answer: 0.628 nM

Question: And the Response [1]?
Answer: 1.01

Question: And the koff [1]?
Answer: 0.000409 s⁻¹

Question: What about the kon [1] of the same binder?
Answer: 651000 M⁻¹ s⁻¹

Question: What about the “EC50 (read off the curve)” value [4] of the same binder?
Answer: ~0.2 µg/mL

Question: What about the Kd [3] of the same binder?
Answer: 0.74 nM

B3: XENP32745 (bispecific antibody)
chain 1: B1 chain 1
chain 2: QVQLVQSGAEVKKPGASVKVSCKASGYTFTSYWMHWVRQAPGQGLEWMGMIHPNSDNTIYYEKFQGRVTMTVDKSISTAYMELSRLRSDDTAVYYCAIIITPVVPKFDYWGQGTLVTVSSASTKGPSVFPLAPSSKSTSGGTAALGCLVKDYFPEPVTVSWNSGALTSGVHTFPAVLQSSGLYSLSSVVTVPSSSLGTQTYICNVNHKPSNTKVDKKVEPKSCGGGGSGGGGSQAVVTQEPSLTVSPGGTVTLTCGSSTGAVTTSNYANWVQQKPGKSPRGLIGGTNKRAPGVPARFSGSLLGGKAALTISGAQPEDEADYYCALWYSNHWVFGGGTKLTVLGKPGSGKPGSGKPGSGKPGSEVQLVESGGGLVQPGGSLRLSCAASGFTFSTYAMNWVRQAPGKGLEWVGRIRSKANNYATYYADSVKGRFTISRDDSKNTLYLQMNSLRAEDTAVYYCVRHGNFGDSYVSWFAYWGQGTLVTVSSGGGGSGGGGSKTHTCPPCPAPPVAGPSVFLFPPKPKDTLMISRTPEVTCVVVDVKHEDPEVKFNWYVDGVEVHNAKTKPREEQYNSTYRVVSVLTVLHQDWLNGKEYKCKVSNKALPAPIEKTISKAKGQPREPQVYTLPPSREQMTKNQVKLTCLVKGFYPSDIAVEWESNGQPENNYKTTPPVLDSDGSFFLYSKLTVDKSRWQQGNVFSCSVMHEALHNHYTQKSLSLSPGK
chain 3: B1 chain 3
Question: What does the source list for B3?
Answer: Kd [5]: 0.45 nM; EC50 (read off the curve) [2]: ~0.05 µg/mL

B4: XENP32748 (bispecific antibody)
chain 1: B1 chain 1
chain 2: B3 chain 2
chain 3: B1 chain 3 with S28D, G30L
Question: With B4 as the binder, how does the Kd [5] read?
Answer: 0.74 nM

Question: And the “EC50 (read off the curve)” value [4]?
Answer: ~0.04 µg/mL

B5: XENP32852 (bispecific antibody)
chain 1: B1 chain 1
chain 2: B3 chain 2
chain 3: B1 chain 3 with S28D, S92Y
Question: B5 was tested. Which Kd [5] did it give?
Answer: 3.9 nM

Question: What about the “EC50 (read off the curve)” value [6] of the same binder?
Answer: ~0.06 µg/mL

B6: XENP32853 (bispecific antibody)
chain 1: B1 chain 1
chain 2: QVQLVQSGAEVKKPGASVKVSCKASGYTFTSYWMHWVRQAPGQGLEWMGMIHPNSDNTIYYEKFQGRVTMTVDKSISTAYMELSRLRSDDTAVYYCAIIITPVVPKFDYWGQGTLVTVSSASTKGPSVFPLAPSSKSTSGGTAALGCLVKDYFPEPVTVSWNSGALTSGVHTFPAVLQSSGLYSLSSVVTVPSSSLGTQTYICNVNHKPSNTKVDKKVEPKSCGGGGSGGGGSQAVVTQEPSLTVSPGGTVTLTCGSSTGAVTTSNYANWVQQKPGKSPRGLIGGTNKRAPGVPARFSGSLLGGKAALTISGAQPEDEADYYCALWYSNHWVFGGGTKLTVLGKPGSGKPGSGKPGSGKPGSEVQLVESGGGLVQPGGSLRLSCAASGFTFSTYAMNWVRQAPGKGLEWVGRIRSKYNNYATYYADSVKGRFTISRDDSKNTLYLQMNSLRAEDTAVYYCVRHGNFGDEYVSWFAYWGQGTLVTVSSEPKSSDKTHTCPPCPAPPVAGPSVFLFPPKPKDTLMISRTPEVTCVVVDVKHEDPEVKFNWYVDGVEVHNAKTKPREEQYNSTYRVVSVLTVLHQDWLNGKEYKCKVSNKALPAPIEKTISKAKGQPREPQVYTLPPSREQMTKNQVKLTCLVKGFYPSDIAVEWESNGQPENNYKTTPPVLDSDGSFFLYSKLTVDKSRWQQGNVFSCSVMHEALHNHYTQKSLSLSPGK
chain 3: B1 chain 3 with S28D, S92Y
Question: What does the source list for B6?
Answer: Kd [5]: 3.9 nM; EC50 (read off the curve) [6]: ~0.06 µg/mL

B7: XENP39566 (bispecific antibody)
heavy: B1 chain 1 with M50W, M430L, N436S
scFv-Fc: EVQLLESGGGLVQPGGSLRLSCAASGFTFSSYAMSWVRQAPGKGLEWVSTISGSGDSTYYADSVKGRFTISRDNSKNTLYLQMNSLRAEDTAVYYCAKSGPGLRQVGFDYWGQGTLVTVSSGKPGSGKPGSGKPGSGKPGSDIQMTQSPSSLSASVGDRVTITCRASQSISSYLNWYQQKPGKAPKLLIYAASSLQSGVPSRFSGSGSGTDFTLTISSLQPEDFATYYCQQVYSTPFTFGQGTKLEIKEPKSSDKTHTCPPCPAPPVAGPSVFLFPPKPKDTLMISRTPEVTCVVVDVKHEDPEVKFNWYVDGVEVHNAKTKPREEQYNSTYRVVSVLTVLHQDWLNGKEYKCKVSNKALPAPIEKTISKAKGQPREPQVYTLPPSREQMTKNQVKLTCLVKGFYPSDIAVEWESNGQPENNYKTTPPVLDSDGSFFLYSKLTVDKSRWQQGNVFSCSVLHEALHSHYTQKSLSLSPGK
light: B1 chain 3 with S28D
notes: also called XENP39566 MSLN (9 nM) x CD28 (180 nM) 1+1 Fab-scFv-Fc
Question: Which results are given for B7?
Answer: EC50 (read off the curve) [7]: ~4 µg/mL; EC50 (read off the curve) [8]: ~4 µg/mL; Kd [9]: 180 nM; Kd [10]: 9 nM

B8: XENP39554 (bispecific antibody)
heavy: B1 chain 1 with M430L, N436S
scFv-Fc: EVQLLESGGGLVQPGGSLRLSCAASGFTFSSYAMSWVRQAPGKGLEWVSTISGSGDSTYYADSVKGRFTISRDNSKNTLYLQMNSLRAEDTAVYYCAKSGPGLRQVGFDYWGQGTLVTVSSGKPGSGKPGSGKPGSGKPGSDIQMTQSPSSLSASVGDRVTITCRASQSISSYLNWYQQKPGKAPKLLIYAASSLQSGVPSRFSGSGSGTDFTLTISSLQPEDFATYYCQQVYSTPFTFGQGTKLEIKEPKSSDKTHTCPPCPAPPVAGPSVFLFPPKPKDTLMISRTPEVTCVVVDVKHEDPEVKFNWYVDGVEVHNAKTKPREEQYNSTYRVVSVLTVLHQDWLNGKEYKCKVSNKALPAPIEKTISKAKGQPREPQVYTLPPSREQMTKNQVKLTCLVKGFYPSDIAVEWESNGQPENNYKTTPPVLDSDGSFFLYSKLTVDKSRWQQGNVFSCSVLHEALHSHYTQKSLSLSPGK
light: B1 chain 3 with S28D
notes: also called XENP39554 MSLN (0.3 nM) x CD28 (180 nM) 1+1 Fab-scFv-Fc
Question: B8 was tested. Which “EC50 (read off the curve)” value [7] did it give?
Answer: ~0.01 µg/mL

Question: What about the “EC50 (read off the curve)” value [8] of the same binder?
Answer: ~0.01 µg/mL

Question: What about the Kd [9] of the same binder?
Answer: 180 nM

Question: What about the Kd [10] of the same binder?
Answer: 0.3 nM
